In patent publication US20250368745A1 (published 2025) one finds Kd data, which are given here for 19 molecules.

The target in assay [1] is T1, human IL-18BP (human, UniProt O95998 31-194).
T1 construct: UniProt printed as 095998; also called hIL-18BP
T1 sequence: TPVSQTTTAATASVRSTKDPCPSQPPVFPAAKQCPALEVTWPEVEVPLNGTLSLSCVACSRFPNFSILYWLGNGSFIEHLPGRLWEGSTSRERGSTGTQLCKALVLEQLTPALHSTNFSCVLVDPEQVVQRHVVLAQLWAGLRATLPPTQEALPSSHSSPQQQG
The assay is described as follows: BLI, apparent KD.

The target in assay [2] is T2, cynomolgus IL-18BP (cynomolgus monkey).
T2 construct: also called cyno IL-18BP; cyIL-18BP
T2 chain: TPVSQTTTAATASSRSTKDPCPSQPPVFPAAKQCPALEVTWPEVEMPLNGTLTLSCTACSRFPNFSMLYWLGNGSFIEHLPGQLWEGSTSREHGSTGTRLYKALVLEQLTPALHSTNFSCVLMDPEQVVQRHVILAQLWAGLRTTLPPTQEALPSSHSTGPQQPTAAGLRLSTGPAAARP
As to the kind of experiment: BLI, apparent KD. (BLI is a label-free optical method that tracks binding on a fibre tip over time.)

B1: SA301a HC-V100aH (antibody, name in Kabat numbering, V domains shown)
VH: QVQLQESGPGLVKPSQTLSLTCTVSGYSITSDYNSHWIRQPPGKGLEWIGYIHYSGSTNYNPSLKSRVTISRDTSKNQFSLKLSSVTAADTAVYYCARNYGSIYHNYFDYWGQGTLVTVSS
VL: EIVLTQSPATLSLSPGERATLSCSASSSVSYMYWYQQKPGQAPRPLIYRTSNLASGIPARFSGSGSGTDFTLTISSLEPEDFAVYYCQQYHSYPTFGGGTKVEIK
notes: IgG1 kappa
On to B1, for which the Kd in assay [1] stood at 0.41 nM; in assay [2] it was 0.06 nM.

B2: SA301a HC-V100aG (antibody, name in Kabat numbering, V domains shown)
VH: QVQLQESGPGLVKPSQTLSLTCTVSGYSITSDYNSHWIRQPPGKGLEWIGYIHYSGSTNYNPSLKSRVTISRDTSKNQFSLKLSSVTAADTAVYYCARNYGSIYGNYFDYWGQGTLVTVSS
VL: EIVLTQSPATLSLSPGERATLSCSASSSVSYMYWYQQKPGQAPRPLIYRTSNLASGIPARFSGSGSGTDFTLTISSLEPEDFAVYYCQQYHSYPTFGGGTKVEIK
notes: IgG1 kappa
Take B2: the Kd was 0.55 nM in assay [1] and 0.92 nM in assay [2].

B3: SA301a HC-I99N (antibody, name in Kabat numbering, V domains shown)
VH: QVQLQESGPGLVKPSQTLSLTCTVSGYSITSDYNSHWIRQPPGKGLEWIGYIHYSGSTNYNPSLKSRVTISRDTSKNQFSLKLSSVTAADTAVYYCARNYGSNYVNYFDYWGQGTLVTVSS
VL: EIVLTQSPATLSLSPGERATLSCSASSSVSYMYWYQQKPGQAPRPLIYRTSNLASGIPARFSGSGSGTDFTLTISSLEPEDFAVYYCQQYHSYPTFGGGTKVEIK
notes: IgG1 kappa
With B3, the Kd is 0.55 nM in assay [1] and 0.66 nM in assay [2].

B4: SA301a HC-I99V (antibody, name in Kabat numbering, V domains shown)
VH: QVQLQESGPGLVKPSQTLSLTCTVSGYSITSDYNSHWIRQPPGKGLEWIGYIHYSGSTNYNPSLKSRVTISRDTSKNQFSLKLSSVTAADTAVYYCARNYGSVYVNYFDYWGQGTLVTVSS
VL: EIVLTQSPATLSLSPGERATLSCSASSSVSYMYWYQQKPGQAPRPLIYRTSNLASGIPARFSGSGSGTDFTLTISSLEPEDFAVYYCQQYHSYPTFGGGTKVEIK
notes: IgG1 kappa
As to B4, the values for the Kd in assay [1] and in assay [2] were 0.05 nM and 0.33 nM, respectively.

B5: SA301a HC-I99G (antibody, name in Kabat numbering, V domains shown)
VH: QVQLQESGPGLVKPSQTLSLTCTVSGYSITSDYNSHWIRQPPGKGLEWIGYIHYSGSTNYNPSLKSRVTISRDTSKNQFSLKLSSVTAADTAVYYCARNYGSGYVNYFDYWGQGTLVTVSS
VL: EIVLTQSPATLSLSPGERATLSCSASSSVSYMYWYQQKPGQAPRPLIYRTSNLASGIPARFSGSGSGTDFTLTISSLEPEDFAVYYCQQYHSYPTFGGGTKVEIK
notes: IgG1 kappa
With B5, the Kd is 1.04 nM in assay [1] and 0.67 nM in assay [2].

B6: SA301a HC-I99Q (antibody, name in Kabat numbering, V domains shown)
VH: QVQLQESGPGLVKPSQTLSLTCTVSGYSITSDYNSHWIRQPPGKGLEWIGYIHYSGSTNYNPSLKSRVTISRDTSKNQFSLKLSSVTAADTAVYYCARNYGSQYVNYFDYWGQGTLVTVSS
VL: EIVLTQSPATLSLSPGERATLSCSASSSVSYMYWYQQKPGQAPRPLIYRTSNLASGIPARFSGSGSGTDFTLTISSLEPEDFAVYYCQQYHSYPTFGGGTKVEIK
notes: IgG1 kappa
For B6, the values for the Kd in assay [1] and in assay [2] were 0.25 nM and 0.44 nM, respectively.

B7: SA301a HC-I99S (antibody, name in Kabat numbering, V domains shown)
VH: QVQLQESGPGLVKPSQTLSLTCTVSGYSITSDYNSHWIRQPPGKGLEWIGYIHYSGSTNYNPSLKSRVTISRDTSKNQFSLKLSSVTAADTAVYYCARNYGSSYVNYFDYWGQGTLVTVSS
VL: EIVLTQSPATLSLSPGERATLSCSASSSVSYMYWYQQKPGQAPRPLIYRTSNLASGIPARFSGSGSGTDFTLTISSLEPEDFAVYYCQQYHSYPTFGGGTKVEIK
notes: IgG1 kappa
For B7, the Kd worked out at 0.56 nM in assay [1] and 0.53 nM in assay [2].

B8: SA301a HC-I99F (antibody, name in Kabat numbering, V domains shown)
VH: QVQLQESGPGLVKPSQTLSLTCTVSGYSITSDYNSHWIRQPPGKGLEWIGYIHYSGSTNYNPSLKSRVTISRDTSKNQFSLKLSSVTAADTAVYYCARNYGSFYVNYFDYWGQGTLVTVSS
VL: EIVLTQSPATLSLSPGERATLSCSASSSVSYMYWYQQKPGQAPRPLIYRTSNLASGIPARFSGSGSGTDFTLTISSLEPEDFAVYYCQQYHSYPTFGGGTKVEIK
notes: IgG1 kappa
Turning to B8, the Kd in assay [1] turned out to be 0.64 nM; in assay [2], 0.97 nM.

B9: SA301a HC-N100bS (antibody, name in Kabat numbering, V domains shown)
VH: QVQLQESGPGLVKPSQTLSLTCTVSGYSITSDYNSHWIRQPPGKGLEWIGYIHYSGSTNYNPSLKSRVTISRDTSKNQFSLKLSSVTAADTAVYYCARNYGSIYVSYFDYWGQGTLVTVSS
VL: EIVLTQSPATLSLSPGERATLSCSASSSVSYMYWYQQKPGQAPRPLIYRTSNLASGIPARFSGSGSGTDFTLTISSLEPEDFAVYYCQQYHSYPTFGGGTKVEIK
notes: IgG1 kappa
B9: the Kd is 0.49 nM in assay [1] and 0.09 nM in assay [2].

B10: SA301a HC-N100bH (antibody, name in Kabat numbering, V domains shown)
VH: QVQLQESGPGLVKPSQTLSLTCTVSGYSITSDYNSHWIRQPPGKGLEWIGYIHYSGSTNYNPSLKSRVTISRDTSKNQFSLKLSSVTAADTAVYYCARNYGSIYVHYFDYWGQGTLVTVSS
VL: EIVLTQSPATLSLSPGERATLSCSASSSVSYMYWYQQKPGQAPRPLIYRTSNLASGIPARFSGSGSGTDFTLTISSLEPEDFAVYYCQQYHSYPTFGGGTKVEIK
notes: IgG1 kappa
With B10, the figures for the Kd in assay [1] and in assay [2] were 0.69 nM and 1.03 nM, respectively.

B11: SA301a HC-V100aN (antibody, name in Kabat numbering, V domains shown)
VH: QVQLQESGPGLVKPSQTLSLTCTVSGYSITSDYNSHWIRQPPGKGLEWIGYIHYSGSTNYNPSLKSRVTISRDTSKNQFSLKLSSVTAADTAVYYCARNYGSIYNNYFDYWGQGTLVTVSS
VL: EIVLTQSPATLSLSPGERATLSCSASSSVSYMYWYQQKPGQAPRPLIYRTSNLASGIPARFSGSGSGTDFTLTISSLEPEDFAVYYCQQYHSYPTFGGGTKVEIK
notes: IgG1 kappa
Take B11: the Kd in assay [1] worked out at 0.68 nM; in assay [2] it was 0.11 nM.

B12: SA301a HC-I99R (antibody, name in Kabat numbering, V domains shown)
VH: QVQLQESGPGLVKPSQTLSLTCTVSGYSITSDYNSHWIRQPPGKGLEWIGYIHYSGSTNYNPSLKSRVTISRDTSKNQFSLKLSSVTAADTAVYYCARNYGSRYVNYFDYWGQGTLVTVSS
VL: EIVLTQSPATLSLSPGERATLSCSASSSVSYMYWYQQKPGQAPRPLIYRTSNLASGIPARFSGSGSGTDFTLTISSLEPEDFAVYYCQQYHSYPTFGGGTKVEIK
notes: IgG1 kappa
As for B12, the results for the Kd in assay [1] and in assay [2] were 0.46 nM and 0.69 nM, respectively.

B13: SA301a HC-N100bV (antibody, name in Kabat numbering, V domains shown)
VH: QVQLQESGPGLVKPSQTLSLTCTVSGYSITSDYNSHWIRQPPGKGLEWIGYIHYSGSTNYNPSLKSRVTISRDTSKNQFSLKLSSVTAADTAVYYCARNYGSIYVVYFDYWGQGTLVTVSS
VL: EIVLTQSPATLSLSPGERATLSCSASSSVSYMYWYQQKPGQAPRPLIYRTSNLASGIPARFSGSGSGTDFTLTISSLEPEDFAVYYCQQYHSYPTFGGGTKVEIK
notes: IgG1 kappa
With B13, the results for the Kd in assay [1] and in assay [2] were 2.16 nM and 1.16 nM, respectively.

B14: SA301a HC-V100aS (antibody, name in Kabat numbering, V domains shown)
VH: QVQLQESGPGLVKPSQTLSLTCTVSGYSITSDYNSHWIRQPPGKGLEWIGYIHYSGSTNYNPSLKSRVTISRDTSKNQFSLKLSSVTAADTAVYYCARNYGSIYSNYFDYWGQGTLVTVSS
VL: EIVLTQSPATLSLSPGERATLSCSASSSVSYMYWYQQKPGQAPRPLIYRTSNLASGIPARFSGSGSGTDFTLTISSLEPEDFAVYYCQQYHSYPTFGGGTKVEIK
notes: IgG1 kappa
In the case of B14, the Kd was 0.28 nM in assay [1] and 0.53 nM in assay [2].

B15: SA301a HC-I99H (antibody, name in Kabat numbering, V domains shown)
VH: QVQLQESGPGLVKPSQTLSLTCTVSGYSITSDYNSHWIRQPPGKGLEWIGYIHYSGSTNYNPSLKSRVTISRDTSKNQFSLKLSSVTAADTAVYYCARNYGSHYVNYFDYWGQGTLVTVSS
VL: EIVLTQSPATLSLSPGERATLSCSASSSVSYMYWYQQKPGQAPRPLIYRTSNLASGIPARFSGSGSGTDFTLTISSLEPEDFAVYYCQQYHSYPTFGGGTKVEIK
notes: IgG1 kappa
As for B15, the Kd in assay [1] came out at 0.61 nM; in assay [2], 0.83 nM.

B16: SA301a HC-V100aT (antibody, name in Kabat numbering, V domains shown)
VH: QVQLQESGPGLVKPSQTLSLTCTVSGYSITSDYNSHWIRQPPGKGLEWIGYIHYSGSTNYNPSLKSRVTISRDTSKNQFSLKLSSVTAADTAVYYCARNYGSIYTNYFDYWGQGTLVTVSS
VL: EIVLTQSPATLSLSPGERATLSCSASSSVSYMYWYQQKPGQAPRPLIYRTSNLASGIPARFSGSGSGTDFTLTISSLEPEDFAVYYCQQYHSYPTFGGGTKVEIK
notes: IgG1 kappa
Turning to B16, the Kd was found to be 0.27 nM in assay [1] and 0.06 nM in assay [2].

B17: SA301a HC-N100bD (antibody, name in Kabat numbering, V domains shown)
VH: QVQLQESGPGLVKPSQTLSLTCTVSGYSITSDYNSHWIRQPPGKGLEWIGYIHYSGSTNYNPSLKSRVTISRDTSKNQFSLKLSSVTAADTAVYYCARNYGSIYVDYFDYWGQGTLVTVSS
VL: EIVLTQSPATLSLSPGERATLSCSASSSVSYMYWYQQKPGQAPRPLIYRTSNLASGIPARFSGSGSGTDFTLTISSLEPEDFAVYYCQQYHSYPTFGGGTKVEIK
notes: IgG1 kappa
Regarding B17, the Kd in assay [1] was found to be 2.3 nM; in assay [2] it was 0.96 nM.

B18: SA301a HC-I99M (antibody, name in Kabat numbering, V domains shown)
VH: QVQLQESGPGLVKPSQTLSLTCTVSGYSITSDYNSHWIRQPPGKGLEWIGYIHYSGSTNYNPSLKSRVTISRDTSKNQFSLKLSSVTAADTAVYYCARNYGSMYVNYFDYWGQGTLVTVSS
VL: EIVLTQSPATLSLSPGERATLSCSASSSVSYMYWYQQKPGQAPRPLIYRTSNLASGIPARFSGSGSGTDFTLTISSLEPEDFAVYYCQQYHSYPTFGGGTKVEIK
notes: IgG1 kappa
Consider B18, for which the Kd in assay [1] was 0.21 nM; in assay [2], 0.37 nM.

B19: SA301a HC-V100aI (antibody, name in Kabat numbering, V domains shown)
VH: QVQLQESGPGLVKPSQTLSLTCTVSGYSITSDYNSHWIRQPPGKGLEWIGYIHYSGSTNYNPSLKSRVTISRDTSKNQFSLKLSSVTAADTAVYYCARNYGSIYINYFDYWGQGTLVTVSS
VL: EIVLTQSPATLSLSPGERATLSCSASSSVSYMYWYQQKPGQAPRPLIYRTSNLASGIPARFSGSGSGTDFTLTISSLEPEDFAVYYCQQYHSYPTFGGGTKVEIK
notes: IgG1 kappa
On to B19, for which the Kd is 0.09 nM in assay [1] and 0.25 nM in assay [2].
